Results taken from paper PMC11910503, “Novel metal sites revealed by spectroscopic and structural characterization of the ferric uptake regulator from Acidithiobacillus ferrooxidans”.

T1: AfFur E104K (Acidithiobacillus ferrooxidans ATCC …, UniProt B7J425 1-158, E104K)
T1 sequence: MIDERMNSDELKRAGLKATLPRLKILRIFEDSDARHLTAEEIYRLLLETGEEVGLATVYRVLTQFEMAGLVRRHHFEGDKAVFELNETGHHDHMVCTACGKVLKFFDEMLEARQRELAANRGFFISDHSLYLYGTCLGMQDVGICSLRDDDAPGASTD

T2: AfFur H91D (Acidithiobacillus ferrooxidans ATCC …, UniProt B7J425 1-158, H91D)
T2 sequence: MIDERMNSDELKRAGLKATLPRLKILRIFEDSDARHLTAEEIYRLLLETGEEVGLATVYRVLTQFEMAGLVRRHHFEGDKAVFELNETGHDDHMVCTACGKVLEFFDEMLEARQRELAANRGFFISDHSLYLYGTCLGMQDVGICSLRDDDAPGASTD

T3: AfFur C145A (Acidithiobacillus ferrooxidans ATCC …, UniProt B7J425 1-158, C145A)
T3 sequence: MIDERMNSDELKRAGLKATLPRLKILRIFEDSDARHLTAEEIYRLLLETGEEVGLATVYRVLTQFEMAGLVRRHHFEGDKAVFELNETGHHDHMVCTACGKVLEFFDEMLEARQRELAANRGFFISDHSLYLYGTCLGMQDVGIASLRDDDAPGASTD

T4: AfFur C145W (Acidithiobacillus ferrooxidans ATCC …, UniProt B7J425 1-158, C145W)
T4 sequence: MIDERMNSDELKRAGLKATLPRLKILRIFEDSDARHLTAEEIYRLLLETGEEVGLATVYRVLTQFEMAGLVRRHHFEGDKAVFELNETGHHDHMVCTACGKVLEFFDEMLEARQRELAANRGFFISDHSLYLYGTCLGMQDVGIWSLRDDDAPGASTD

T5: AfFur C96A (Acidithiobacillus ferrooxidans ATCC …, UniProt B7J425 1-158, C96A)
T5 sequence: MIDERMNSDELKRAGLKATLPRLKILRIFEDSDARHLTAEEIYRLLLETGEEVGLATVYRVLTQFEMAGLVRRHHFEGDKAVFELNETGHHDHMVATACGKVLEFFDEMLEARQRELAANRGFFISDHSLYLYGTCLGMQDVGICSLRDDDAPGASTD

T6: AfFur C136A (Acidithiobacillus ferrooxidans ATCC …, UniProt B7J425 1-158, C136A)
T6 sequence: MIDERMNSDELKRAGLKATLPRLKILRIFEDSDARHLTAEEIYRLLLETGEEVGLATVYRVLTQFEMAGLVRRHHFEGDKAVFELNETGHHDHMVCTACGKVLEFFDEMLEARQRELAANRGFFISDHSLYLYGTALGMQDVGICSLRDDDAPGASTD

T7: AfFur C99A (Acidithiobacillus ferrooxidans ATCC …, UniProt B7J425 1-158, C99A)
T7 sequence: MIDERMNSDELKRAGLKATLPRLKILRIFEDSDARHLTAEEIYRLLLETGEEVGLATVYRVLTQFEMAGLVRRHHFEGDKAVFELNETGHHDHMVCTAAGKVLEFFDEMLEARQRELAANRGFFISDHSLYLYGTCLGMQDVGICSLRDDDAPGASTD

T8: AfFur H93A (Acidithiobacillus ferrooxidans ATCC …, UniProt B7J425 1-158, H93A)
T8 sequence: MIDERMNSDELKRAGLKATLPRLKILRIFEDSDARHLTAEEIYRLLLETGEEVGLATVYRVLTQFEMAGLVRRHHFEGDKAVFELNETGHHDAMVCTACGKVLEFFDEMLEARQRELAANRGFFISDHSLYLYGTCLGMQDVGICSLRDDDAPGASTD

T9: AfFur WT (Acidithiobacillus ferrooxidans ATCC …, UniProt B7J425 1-158)
T9 sequence: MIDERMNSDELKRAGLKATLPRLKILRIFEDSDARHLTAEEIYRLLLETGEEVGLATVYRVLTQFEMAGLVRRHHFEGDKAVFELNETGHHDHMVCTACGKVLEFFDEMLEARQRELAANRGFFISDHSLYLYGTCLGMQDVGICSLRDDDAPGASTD

T10: AfFur H91K (Acidithiobacillus ferrooxidans ATCC …, UniProt B7J425 1-158, H91K)
T10 sequence: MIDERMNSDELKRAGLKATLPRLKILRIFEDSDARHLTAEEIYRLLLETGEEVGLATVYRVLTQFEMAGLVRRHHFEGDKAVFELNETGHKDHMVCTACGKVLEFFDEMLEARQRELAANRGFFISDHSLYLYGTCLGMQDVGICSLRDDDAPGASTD

T11: AfFur E84A (Acidithiobacillus ferrooxidans ATCC …, UniProt B7J425 1-158, E84A)
T11 sequence: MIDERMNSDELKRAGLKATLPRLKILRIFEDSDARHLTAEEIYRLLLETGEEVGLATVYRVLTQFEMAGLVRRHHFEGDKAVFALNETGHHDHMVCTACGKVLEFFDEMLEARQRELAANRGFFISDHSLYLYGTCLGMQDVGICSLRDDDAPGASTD


Assays:
[1] = biological target: Ferric Uptake Regulator from Acidithiobacillus ferrooxidans (AfFur), wild type, N-terminal His-tag (Acidithiobacillus ferrooxidans ATCC 23270); test: SDS-PAGE and western blot; purified His-tagged AfFur on SDS-PAGE (Coomassie, Figure S2) and western blot with anti-6x His tag antibody (Figure S3); dimer
[2] = biological target: Ferric Uptake Regulator from Acidithiobacillus ferrooxidans (AfFur), wild type, N-terminal His-tag (Acidithiobacillus ferrooxidans ATCC 23270); test: SEC; size-exclusion chromatography of AfFur, data not shown; dimer in solution
AfFur E104K = biological target: T1, AfFur E104K; test: EMSA; 0.1 mM Mn2+, 5 mM Mg2+; lost with cold probe; 10 mM Tris pH 7.5, 50 mM KCl, 5 mM MgCl2, 0.1 mM MnCl2, 1 mM DTT, 2.5% glycerol, 50 ng/uL poly(dI-dC), 0.05% NP-40; 20 fmol probe, 2.9-3.9 ug protein in 20 uL; settings: protein: recombinant; tags: N-terminal His6 (pLATE51); chain copies: 2; label: 5' biotin
AfFur H91D = biological target: T2, AfFur H91D; test: as above; settings: protein: recombinant; tags: N-terminal His6 (pLATE51); chain copies: 2; label: 5' biotin
AfFur C145A = biological target: T3, AfFur C145A; test: EMSA; 0.1 mM Mn2+, 5 mM Mg2+; also no shift + EDTA; 10 mM Tris pH 7.5, 50 mM KCl, 5 mM MgCl2, 0.1 mM MnCl2, 1 mM DTT, 2.5% glycerol, 50 ng/uL poly(dI-dC), 0.05% NP-40; 20 fmol probe, 2.9-3.9 ug protein in 20 uL; settings: protein: recombinant; tags: N-terminal His6 (pLATE51); chain copies: 2; label: 5' biotin
AfFur C145W = biological target: T4, AfFur C145W; test: as above; settings: protein: recombinant; tags: N-terminal His6 (pLATE51); chain copies: 2; label: 5' biotin
AfFur C96A = biological target: T5, AfFur C96A; test: as above; settings: protein: recombinant; tags: N-terminal His6 (pLATE51); chain copies: 2; label: 5' biotin
AfFur C136A = biological target: T6, AfFur C136A; test: as above; settings: protein: recombinant; tags: N-terminal His6 (pLATE51); chain copies: 2; label: 5' biotin
AfFur C99A = biological target: T7, AfFur C99A; test: as above; settings: protein: recombinant; tags: N-terminal His6 (pLATE51); chain copies: 2; label: 5' biotin
AfFur H93A = biological target: T8, AfFur H93A; test: EMSA; 0.1 mM Mn2+, 5 mM Mg2+; 10 mM Tris pH 7.5, 50 mM KCl, 5 mM MgCl2, 0.1 mM MnCl2, 1 mM DTT, 2.5% glycerol, 50 ng/uL poly(dI-dC), 0.05% NP-40; 20 fmol probe, 2.9-3.9 ug protein in 20 uL; settings: protein: recombinant; tags: N-terminal His6 (pLATE51); chain copies: 2; label: 5' biotin
AfFur WT = biological target: T9, AfFur WT; test: EMSA; holo, 0.1 mM Mn2+, 5 mM Mg2+; shift lost with 200-fold cold probe; 10 mM Tris pH 7.5, 50 mM KCl, 5 mM MgCl2, 0.1 mM MnCl2, 1 mM DTT, 2.5% glycerol, 50 ng/uL poly(dI-dC), 0.05% NP-40; 20 fmol probe, 2.9-3.9 ug protein in 20 uL; settings: protein: recombinant; tags: N-terminal His6 (pLATE51); chain copies: 2; label: 5' biotin
AfFur H91K = biological target: T10, AfFur H91K; test: EMSA; 0.1 mM Mn2+, 5 mM Mg2+; shift persists with cold probe; 10 mM Tris pH 7.5, 50 mM KCl, 5 mM MgCl2, 0.1 mM MnCl2, 1 mM DTT, 2.5% glycerol, 50 ng/uL poly(dI-dC), 0.05% NP-40; 20 fmol probe, 2.9-3.9 ug protein in 20 uL; settings: protein: recombinant; tags: N-terminal His6 (pLATE51); chain copies: 2; label: 5' biotin
AfFur E84A = biological target: T11, AfFur E84A; test: as above; settings: protein: recombinant; tags: N-terminal His6 (pLATE51); chain copies: 2; label: 5' biotin

| Molecule | stoichiometry N [1] | stoichiometry N [2] | binding result (AfFur E104K) | binding result (AfFur H91D) | binding result (AfFur C145A) | binding result (AfFur C145W) | binding result (AfFur C96A) | binding result (AfFur C136A) | binding result (AfFur C99A) | binding result (AfFur H93A) | binding result (AfFur WT) | binding result (AfFur H91K) | binding result (AfFur E84A) |
| --- | --- | --- | --- | --- | --- | --- | --- | --- | --- | --- | --- | --- | --- |
| Ferric Uptake Regulator from Acidithiobacillus ferrooxidans (AfFur), wild type, N-terminal His-tag (natural protein) | 2 | 2 |  |  |  |  |  |  |  |  |  |  |  |
| Bio-MntH-Fur-box (dsDNA) DNA 1: GGCATCAATAAACGGGAATCATTCTCGTCTACC DNA 2: GGTAGACGAGAATGATTCCCGTTTATTGATGCC |  |  | binds | binds | no binding | no binding | no binding | no binding | no binding | no binding | binds | binds | binds |
